Patent publication US20250277030A1 (Zymeworks, published 2025)

Experiments:
[1] = target: T1, human sodium-dependent phosphate transporter 2B (NaPi2b) (human, UniProt O95436 1-690); experiment: flow cytometry, IGROV-1 cells (endogenous NaPi2b), 24 h at 4 °C
T1 construct: UniProt ID is given as 095436 [sic]; also called hNaPi2b; Hu NaPi2b
T1 sequence: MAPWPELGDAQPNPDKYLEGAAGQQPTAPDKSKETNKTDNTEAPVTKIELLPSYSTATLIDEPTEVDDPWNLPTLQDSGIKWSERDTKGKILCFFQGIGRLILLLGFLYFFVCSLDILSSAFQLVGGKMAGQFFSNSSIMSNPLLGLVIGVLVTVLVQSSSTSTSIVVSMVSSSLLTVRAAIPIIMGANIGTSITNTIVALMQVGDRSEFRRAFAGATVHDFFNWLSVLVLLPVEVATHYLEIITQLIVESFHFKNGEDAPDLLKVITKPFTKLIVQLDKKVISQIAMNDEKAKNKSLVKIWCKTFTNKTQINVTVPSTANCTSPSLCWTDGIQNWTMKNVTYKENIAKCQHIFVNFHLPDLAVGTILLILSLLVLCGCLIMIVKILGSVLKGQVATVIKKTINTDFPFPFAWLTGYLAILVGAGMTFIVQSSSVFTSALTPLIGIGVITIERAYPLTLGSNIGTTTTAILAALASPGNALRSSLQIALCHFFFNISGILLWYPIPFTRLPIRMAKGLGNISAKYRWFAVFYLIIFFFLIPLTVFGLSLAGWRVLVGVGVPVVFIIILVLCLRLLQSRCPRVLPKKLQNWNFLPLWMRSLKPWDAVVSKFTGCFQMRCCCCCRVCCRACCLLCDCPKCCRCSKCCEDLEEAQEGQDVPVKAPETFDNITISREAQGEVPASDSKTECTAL
Procedure: (§1) IGROV-1 cells express endogenous NaPi2b at a high level.
(§2) Briefly, cells were seeded at 50,000 cells/well in conical-bottom 96-well plates and treated with test antibody for 24 hours at 4° C. to prevent internalization. […] Following incubation, cells were washed and stained with anti-Human IgG Fc AF647 conjugate (Jackson Immuno Research Labs, West Grove, PA; Cat. No. 109-605-098) at 4° C. for 30 min. Following incubation and washing, fluorescence was detected by flow cytometry on a BD LSRFortessa™ Cell Analyzer (BD Biosciences, Franklin Lake, NJ) with 1,000 minimum events collected per well. The AF647/APC-A GeoMean (fluorescence signal geometric mean, proportional to anti-Human AF647 binding) was calculated for the live cell population using FlowJo™ Version 10.8.1 (BD Biosciences, Franklin Lake, NJ) and plotted for each test antibody using GraphPad Prism Version 9 (GraphPad Software, San Diego, CA).

[2] = target: T1, human sodium-dependent phosphate …; experiment: flow cytometry, IGROV-1 cells (endogenous NaPi2b), 24 h at 4 °C; apparent Kd
Procedure: as §1, §2

[3] = target: T1, human sodium-dependent phosphate …; experiment: cell-based or functional assay

Binder	Bmax (MFI) [1]	Kd [2]	In vitro cytotoxicity EC50 (nM), HCC-78 [3]	In vitro cytotoxicity EC50 (nM), IGROV-1 [3]	In vitro cytotoxicity EC50 (nM), OVCAR-3 [3]
v29455 humanized anti-NaPi2b antibody (H2L2) (antibody, human IgG1, kappa, V domains shown) VH: QVQLVQSGAEVKKPGASVKVSCKASGFTFTSYNVHWVRQAPGQGLEWIAAISPGNGDLSYAQKFQGRVTMTVDTSTSTVYMELSSLRSEDTAVYYCARGRTGMGAVDYWGQGTLVTVSS VL: DVQMTQSPSSLSASVGDRVTITCRASQDVYSYLNWYQQKPGKAVKLLIYYTSRLQSGVPSRFSGSGSGTDYTLTISSLQPEDFATYYCQQYNIFPWTFGQGTKLEIKR	41900 MFI	1.18 nM			
v29449 humanized anti-NaPi2b antibody (H4L3) (antibody, human IgG1, kappa, V domains shown, Full-size IgG1/kappa) VH: QVQLVQSGAEVKKPGASVKMSCKASGFTFTSYNVHWVRQAPGQGLEWIAAISPGNGDLSYAQKFQGRATLTVDRSTSTAYMELSSLRSEDTAVYYCARGRTGMGAVDYWGQGTLVTVSS VL: DVQMTQSPSSLSASVGDRVTITCRASQDVYSYLNWYQQKPGKAVKLLIYYTSRLQSGVPSRFSGSGSGTDYTLTISSLQPEDIATYYCQQYNIFPWTFGQGTKLEIKR	44500 MFI	0.79 nM			
v18993-DL1, lifastuzumab conjugated to MC-GGFG-AM-DXd1 (DAR 8) (antibody, human IgG1, kappa, MC-GGFG-AM-DXd1 (DL1) on cysteines freed by reduction; positions not given; MC-GGFG-AM-DXd1 (DL1) on cysteines freed by reduction; positions not given; DAR 8 for the whole antibody) heavy 1: GEVQLVESGGGLVQPGGSLRLSCAASGFSFSDFAMSWVRQAPGKGLEWVATIGRVAFHTYYPDSMKGRFTISRDNSKNTLYLQMNSLRAEDTAVYYCARHRGFDVGHFDFWGQGTLVTVSSASTKGPSVFPLAPSSKSTSGGTAALGCLVKDYFPEPVTVSWNSGALTSGVHTFPAVLQSSGLYSLSSVVTVPSSSLGTQTYICNVNHKPSNTKVDKKVEPKSCDKTHTCPPCPAPELLGGPSVFLFPPKPKDTLMISRTPEVTCVVVDVSHEDPEVKFNWYVDGVEVHNAKTKPREEQYNSTYRVVSVLTVLHQDWLNGKEYKCKVSNKALPAPIEKTISKAKGQPREPQVYVYPPSRDELTKNQVSLTCLVKGFYPSDIAVEWESNGQPENNYKTTPPVLDSDGSFALVSKLTVDKSRWQQGNVFSCSVMHEALHNHYTQKSLSLSPG heavy 2: not shown light: GDIQMTQSPSSLSASVGDRVTITCRSSETLVHSSGNTYLEWYQQKPGKAPKLLIYRVSNRFSGVPSRFSGSGSGTDFTLTISSLQPEDFATYYCFQGSFNPLTFGQGTKVEIKRTVAAPSVFIFPPSDEQLKSGTASVVCLLNNFYPREAKVQWKVDNALQSGNSQESVTEQDSKDSTYSLSSTLTLSKADYEKHKVYACEVTHQGLSSPVTKSFNRGEC			5.45 nM	3.45 nM	
v18992-DL1, MX35 conjugated to MC-GGFG-AM-DXd1 (DAR 8) (antibody, human IgG1, kappa, MC-GGFG-AM-DXd1 (DL1) on cysteines freed by reduction; positions not given; MC-GGFG-AM-DXd1 (DL1) on cysteines freed by reduction; positions not given; DAR 8 for the whole antibody) heavy 1: GQVQLVQSGAEVVKPGASVKMSCKASGYTFTGYNIHWVKQAPGQGLEWIGAIYPGNGDTSYKQKFRGRATLTADTSTSTVYMELSSLRSEDSAVYYCARGETARATFAYWGQGTLVTVSSASTKGPSVFPLAPSSKSTSGGTAALGCLVKDYFPEPVTVSWNSGALTSGVHTFPAVLQSSGLYSLSSVVTVPSSSLGTQTYICNVNHKPSNTKVDKKVEPKSCDKTHTCPPCPAPELLGGPSVFLFPPKPKDTLMISRTPEVTCVVVDVSHEDPEVKFNWYVDGVEVHNAKTKPREEQYNSTYRVVSVLTVLHQDWLNGKEYKCKVSNKALPAPIEKTISKAKGQPREPQVYVYPPSRDELTKNQVSLTCLVKGFYPSDIAVEWESNGQPENNYKTTPPVLDSDGSFALVSKLTVDKSRWQQGNVFSCSVMHEALHNHYTQKSLSLSPG heavy 2: not shown light: GDIQMTQSPSSLSASVGDRVTITCSASQDIGNFLNWYQQKPGKTVKVLIYYTSSLYSGVPSRFSGSGSGTDYTLTISSLQPEDFATYYCQQYSKLPLTFGQGTKLELKRTVAAPSVFIFPPSDEQLKSGTASVVCLLNNFYPREAKVQWKVDNALQSGNSQESVTEQDSKDSTYSLSSTLTLSKADYEKHKVYACEVTHQGLSSPVTKSFNRGEC			0.68 nM	1.04 nM	
v23855-DL3, v23855 conjugated to MC-VC-PABC-MMAE (DAR 4) (antibody, human IgG1, kappa, V domains shown, MC-VC-PABC-MMAE (DL3) on cysteines freed by reduction; positions not given; MC-VC-PABC-MMAE (DL3) on cysteines freed by reduction; positions not given; DAR 4 for the whole antibody) VH: QAYLQQSGAELVRPGASVKMSCKASGFTFTSYNVHWVKQTPRQGLEWIAAISPGNGDLSYNQRFKDKATLTVDRSSSTAYMQLSGLTSEDSAVYFCARGRTGMGAVDYWGQGTSVTVSS VL: DVQMTQTASSLSASLGDRVTISCRASQDVYSYLNWYQQKPHGTVKLLIYYTSRLQSGVPSRFTGSGSGTDYSLTISNLEPEDIATYYCQQYNIFPWTFGGGTKLEIKR			0.2 nM	0.18 nM	0.05 nM

Second part, led by results:

Bmax (MFI) [1]	Kd [2]	Binder	In vitro cytotoxicity EC50 (nM), HCC-78 [3]	In vitro cytotoxicity EC50 (nM), IGROV-1 [3]	In vitro cytotoxicity EC50 (nM), OVCAR-3 [3]
42300 MFI	0.92 nM	v29454 humanized anti-NaPi2b antibody (H3L2) (antibody, human IgG1, kappa, V domains shown) VH: QVQLVQSGAEVKKPGASVKMSCKASGFTFTSYNVHWVRQAPGQGLEWIAAISPGNGDLSYAQKFQGRATLTVDTSTSTAYMELSSLRSEDTAVYYCARGRTGMGAVDYWGQGTLVTVSS VL: DVQMTQSPSSLSASVGDRVTITCRASQDVYSYLNWYQQKPGKAVKLLIYYTSRLQSGVPSRFSGSGSGTDYTLTISSLQPEDFATYYCQQYNIFPWTFGQGTKLEIKR			
46200 MFI	1.49 nM	v29451 humanized anti-NaPi2b antibody (H2L3) (antibody, human IgG1, kappa, V domains shown) VH: QVQLVQSGAEVKKPGASVKVSCKASGFTFTSYNVHWVRQAPGQGLEWIAAISPGNGDLSYAQKFQGRVTMTVDTSTSTVYMELSSLRSEDTAVYYCARGRTGMGAVDYWGQGTLVTVSS VL: DVQMTQSPSSLSASVGDRVTITCRASQDVYSYLNWYQQKPGKAVKLLIYYTSRLQSGVPSRFSGSGSGTDYTLTISSLQPEDIATYYCQQYNIFPWTFGQGTKLEIKR			
44500 MFI	0.82 nM	v29453 humanized anti-NaPi2b antibody (H4L2) (antibody, human IgG1, kappa, V domains shown) VH: QVQLVQSGAEVKKPGASVKMSCKASGFTFTSYNVHWVRQAPGQGLEWIAAISPGNGDLSYAQKFQGRATLTVDRSTSTAYMELSSLRSEDTAVYYCARGRTGMGAVDYWGQGTLVTVSS VL: DVQMTQSPSSLSASVGDRVTITCRASQDVYSYLNWYQQKPGKAVKLLIYYTSRLQSGVPSRFSGSGSGTDYTLTISSLQPEDFATYYCQQYNIFPWTFGQGTKLEIKR			
40800 MFI	1.39 nM	v29458 humanized anti-NaPi2b antibody (H3L1) (antibody, human IgG1, kappa, V domains shown) VH: QVQLVQSGAEVKKPGASVKMSCKASGFTFTSYNVHWVRQAPGQGLEWIAAISPGNGDLSYAQKFQGRATLTVDTSTSTAYMELSSLRSEDTAVYYCARGRTGMGAVDYWGQGTLVTVSS VL: DIQMTQSPSSLSASVGDRVTITCRASQDVYSYLNWYQQKPGKAPKLLIYYTSRLQSGVPSRFSGSGSGTDFTLTISSLQPEDFATYYCQQYNIFPWTFGQGTKLEIKR			
43800 MFI	0.96 nM	v29450 humanized anti-NaPi2b antibody (H3L3) (antibody, human IgG1, kappa, V domains shown) VH: QVQLVQSGAEVKKPGASVKMSCKASGFTFTSYNVHWVRQAPGQGLEWIAAISPGNGDLSYAQKFQGRATLTVDTSTSTAYMELSSLRSEDTAVYYCARGRTGMGAVDYWGQGTLVTVSS VL: DVQMTQSPSSLSASVGDRVTITCRASQDVYSYLNWYQQKPGKAVKLLIYYTSRLQSGVPSRFSGSGSGTDYTLTISSLQPEDIATYYCQQYNIFPWTFGQGTKLEIKR			
44500 MFI	1.73 nM	v29457 humanized anti-NaPi2b antibody (H4L1) (antibody, human IgG1, kappa, V domains shown) VH: QVQLVQSGAEVKKPGASVKMSCKASGFTFTSYNVHWVRQAPGQGLEWIAAISPGNGDLSYAQKFQGRATLTVDRSTSTAYMELSSLRSEDTAVYYCARGRTGMGAVDYWGQGTLVTVSS VL: DIQMTQSPSSLSASVGDRVTITCRASQDVYSYLNWYQQKPGKAPKLLIYYTSRLQSGVPSRFSGSGSGTDFTLTISSLQPEDFATYYCQQYNIFPWTFGQGTKLEIKR			
